Test results published in the RNAGym collection of RNA variant scans (doi:10.7554/elife.80360).

B1: Hairpin Ribozyme (parent)
chain: GUCCUCUUUCACGUGCGCGUGAAAGAGAGAAGUGAACCAGAGAAACACACGUUGUGGUAUAUUACCUGGUA

Variants of: B1
Test: self-cleavage, relative activity (ratio to wild type); higher = more cleavage; co-transcriptional

Variant | self-cleavage
GUCCUCUUUCACGUGUGCGUGAAAGAGAGAAGGGAACCAGAGAAACACACGUUGUGGUAUAUUACCUGGUA | 0.148
GUCCUCUUUCACGUGUGCGUGAAACAGAGAAGUGAACCAGAGAAACACACGUUGUGGUAUAUUACCUGGUA | 0.63
GUCCUCUUUCACGUGUGCGUCAAAGAGAGAAGUGAACCAGAGAAACACACGUUGUGGUAUAUUACCUGGUA | 0.749
GUCCUCUUUCACGUGUGCGUUAAAGAGAGAAGUGAACCAGAGAAACACACGUUGUGGUAUAUUACCUGGUA | 0.991
GUCCUCUUUCACGUGUGCGUGAAAGAGAGAAGUGAACCAGAGAAACACACGUUGUGGUAUAUGACCUGGUA | 0.195
GUCCUCUUUCACGUGUGCGUGAAAGAGAGAAGUGAACCAGAGAAACACACGUUGUGGUAUAUAACCUGGUA | 0.253
GUCCUCUUUCACGUGCAGGUGAAAGAGAGAAGUGAACCAGAGAAACACACGUUGUGGUAUAUUACCUGGUA | 1.15
GUCCUCUUUCACGUGCACGUGAAAGAGAGAAGUGAACCAGAGAAACACACGUUGUGGUGUAUUACCUGGUA | 0.205
GUCCUCUUUCACGUGUGCGUGAAAGAGAGAAGUGAACCAGAGAAACACACGUUGUGGUAUAUUACCUUGUA | 0.329
GUCCUCUUUCACGUGUGCGUGAAAGAGAGAAGUGAACCAGAGAAACACACGUUGUGGUAUAUUACCUCGUA | 0.22
GUCCUCUUUCACGUGUGCGUGAAAGAGAGAAGUGAACCAGAGAAACACACGUUGUGGUAUAUUACGUGGUA | 0.228
GUCCUCUUUCACGUGUGCGUGAAAGAGAGAAGUGAACCAGAGAAACACACGUUGUGGUAUAUUACUUGGUA | 0.397
GUCCUCUUUCACGUGCACGUGAAAGAGAGAAGUGAACCAGAGAAACACACGUUGUGGUAUCUUACCUGGUA | 0.199
GUCCUCUUUCACGUGCACGUGAAAGAGAGAAGUGAACCAGAGAAACACACGUUGUGGUAUUUUACCUGGUA | 0.208
GUCCUCUUUCACGUGCACGUGAAAGAGAGAAGUGAACCAGAGAAUCACACGUUGUGGUAUAUUACCUGGUA | 0.13
GUCCUCUUUCACGUGCACGUGAAAGAGAGAAGUGAACCAGAGAAGCACACGUUGUGGUAUAUUACCUGGUA | 0.15
GUCCUCUUUCACGUGCACGUGAAAGAGAGAAGUGAACCAGAGAAACACACGUUGUGGUAUAUUACCUGGUU | 0.868
GUCCUCUUUCACGUGCACGUGAAAGAGAGAAGUGAACCAGAGAAACACACGUUGUGGUAUAUUACCUGGUG | 1.04
GUCCUCUUUCACGUGUGCGCGAAAGAGAGAAGUGAACCAGAGAAACACACGUUGUGGUAUAUUACCUGGUA | 0.86
GUCCUCUUUCACGUGUGCGAGAAAGAGAGAAGUGAACCAGAGAAACACACGUUGUGGUAUAUUACCUGGUA | 0.817
GUCCUCUUUCACGUGUGCGUGAAAGAGAGAAGUGAACCAGAGAAACACAUGUUGUGGUAUAUUACCUGGUA | 0.366
GUCCUCUUUCACGUGCACGUGAAGGAGAGAAGUGAACCAGAGAAACACACGUUGUGGUAUAUUACCUGGUA | 0.824
GUCCUCUUUCACGUGCACGUGAAAGAGCGAAGUGAACCAGAGAAACACACGUUGUGGUAUAUUACCUGGUA | 0.74
GUCCUCUUUCACGUGCACGUGAAAGAGUGAAGUGAACCAGAGAAACACACGUUGUGGUAUAUUACCUGGUA | 0.808
GUCCUCUUUCACGUGUGCGUGAAAGAGAGAAGUGAACCAGAGAAACACACGUUGUCGUAUAUUACCUGGUA | 0.127
GUCCUCUUUCACGUGUGCGUGAAAGAGAGAAGUGAACCAGAGAAACACACGUUGUUGUAUAUUACCUGGUA | 0.189

Variant | self-cleavage
GUCCUCUUUCACGUGUGCUUGAAAGAGAGAAGUGAACCAGAGAAACACACGUUGUGGUAUAUUACCUGGUA | 0.661
GUCCUCUUUCACGUGCACGUGAAAGAGAGAAGUGAACCGGAGAAACACACGUUGUGGUAUAUUACCUGGUA | 0.319
GUCCUCUUUCACGUGCACGUGAAAGAGAGAAGUGAACCAGAGAAACACAUGUUGUGGUAUAUUACCUGGUA | 0.373
GUCCUCUUUCACGUGUGCGUGAAAGAGAGAAGUGAACCAGAUAAACACACGUUGUGGUAUAUUACCUGGUA | 0.34
GUCCUCUUUCACGUGUGCGUGAAAGAGAGAAGUGAACCAGAAAAACACACGUUGUGGUAUAUUACCUGGUA | 0.225
GUCCUCUUUCACGUGUGCGUGAAAGAGAGAAGUGAACCAGACAAACACACGUUGUGGUAUAUUACCUGGUA | 0.346
GUCCUCUUUCACGUGCACGUGAAAGAGAGAAGUGAACCAGAGAUACACACGUUGUGGUAUAUUACCUGGUA | 0.183
GUCCUCUUUCACGUGUGCGUGAAAGAGAGAAGUGAACCAGAGAAACACACGUUUUGGUAUAUUACCUGGUA | 0.82
GUCCUCUUUCACGUGUGCGUGAAAGAGAGAAGUGAACCAGAGAAACACACGUUCUGGUAUAUUACCUGGUA | 0.411
GUCCUCUUUCACGUGCACGUGAAAGAGAGAAGUGAAACAGAGAAACACACGUUGUGGUAUAUUACCUGGUA | 0.251
GUCCUCUUUCACGUGUGCGUGAAAGAGAGAAGUGAACCAGAGAAACACACGUUGUGGUAUAUUAACUGGUA | 1.15
GUCCUCUUUCACGUGCACGUGAAAGAGAGAAGUGAACCAGAGAAACACCCGUUGUGGUAUAUUACCUGGUA | 0.243
GUCCUCUUUCACGUGCACGUGAAAGAGAGAAGUGAACCAGAGAAACACGCGUUGUGGUAUAUUACCUGGUA | 0.62
GUCCUCUUUCACGUGCACGUGAAAGAGAGAAGUGAACAAGAGAAACACACGUUGUGGUAUAUUACCUGGUA | 0.169
GUCCUCUUUCACGUGCACGUGAAAGAGAGAAGUGAACUAGAGAAACACACGUUGUGGUAUAUUACCUGGUA | 0.512
GUCCUCUUUCACGUGCACGUGAAAGGGAGAAGUGAACCAGAGAAACACACGUUGUGGUAUAUUACCUGGUA | 1.01
GUCCUCUUUCACGUGCACGUGAAAGCGAGAAGUGAACCAGAGAAACACACGUUGUGGUAUAUUACCUGGUA | 0.75
GUCCUCUUUCACGUGUGCGUGAAAGAGAUAAGUGAACCAGAGAAACACACGUUGUGGUAUAUUACCUGGUA | 0.0547
GUCCUCUUUCACGUGUGCGUGAAAGAGAGAAUUGAACCAGAGAAACACACGUUGUGGUAUAUUACCUGGUA | 0.134
GUCCUCUUUCACGUGUGCGUGAAAGAGAGAACUGAACCAGAGAAACACACGUUGUGGUAUAUUACCUGGUA | 0.0977
GUCCUCUUUCACGUGCACGUGAAAGAGAGAAGUGAACCAGAGAAACACACGUUGUGGUAUAUUGCCUGGUA | 0.615
GUCCUCUUUCACGUGCACGUGAAAGAGAGAAGUGAACCAGAGAAACACACGUUGUGGUAUAUUUCCUGGUA | 0.151
GUCCUCUUUCACGUGUGCGUGAAAGAGAGAAGUGAACCAGAGAAACACACGUUGCGGUAUAUUACCUGGUA | 0.251
GUCCUCUUUCACGUGCACGUGAAAGAGAGAAGUGAACCAGAGAAACCCACGUUGUGGUAUAUUACCUGGUA | 0.319
GUCCUCUUUCACGUGCACGUGAAAGAGAGAAGUGAACCAGAGAAACUCACGUUGUGGUAUAUUACCUGGUA | 0.132
GUCCUCUUUCACGUGUGCGUGAAAGAGAGAAGUGAACCAGAGAAACACACGUCGUGGUAUAUUACCUGGUA | 0.564

Variant | self-cleavage
GUCCUCUUUCACGUGUGCGUGAAAGAGAGAAGUGAACCAGAGAAACACACGUGGUGGUAUAUUACCUGGUA | 1.05
GUCCUCUUUCACGUGUGCGUGAAAGAGAGAAGUGAACCAGAGAAACACACGUAGUGGUAUAUUACCUGGUA | 1.23
GUCCUCUUUCACGUGCACGUGAAAGAGAGAAGUGAACCAGAGAAACACACGUUGUGGUAUAUUACUUGGUA | 0.554
GUCCUCUUUCACGUGCACGUGAAAGAGAGAAGUGAACCAGAGAAACACACGUUGUGGUAUAUUACAUGGUA | 0.26
GUCCUCUUUCACGUGCACAUGAAAGAGAGAAGUGAACCAGAGAAACACACGUUGUGGUAUAUUACCUGGUA | 0.962
GUCCUCUUUCACGUGUGCGUGAAAGAGAGAAGUUAACCAGAGAAACACACGUUGUGGUAUAUUACCUGGUA | 0.885
GUCCUCUUUCACGUGUGCGUGAAAGAGAGAAGUAAACCAGAGAAACACACGUUGUGGUAUAUUACCUGGUA | 1.26
GUCCUCUUUCACGUGCACGUGAAAGAGAGAAGUGAACCAGAGAAAGACACGUUGUGGUAUAUUACCUGGUA | 0.211
GUCCUCUUUCACGUGCACGUGAAAGAGAGAAGUGAACCAGAGAAAUACACGUUGUGGUAUAUUACCUGGUA | 0.143
GUCCUCUUUCACGUGCACGUGAAAGAGAGAAGUGAACCAGGGAAACACACGUUGUGGUAUAUUACCUGGUA | 0.833
GUCCUCUUUCACGUGCACGUGAAAGAGAGAAGUGAACCAGAGUAACACACGUUGUGGUAUAUUACCUGGUA | 0.105
GUCCUCUUUCACGUGUGCGUGAAAGAAAGAAGUGAACCAGAGAAACACACGUUGUGGUAUAUUACCUGGUA | 0.536
GUCCUCUUUCACGUGCACGUGAAAGAGAGACGUGAACCAGAGAAACACACGUUGUGGUAUAUUACCUGGUA | 0.144
GUCCUCUUUCACGUGUGCGUGAAAGAGAGAAGUGAACCAGAGAAACACACGUUGUGGUAGAUUACCUGGUA | 0.634
GUCCUCUUUCACGUGUGCGUGAAAGAGAGAAGUGAACCAGAGAAACACACGUUGUGGUAUAUUACCUGAUA | 0.301
GUCCUCUUUCACGUGUGCGUGAAAGAGAGAAGUGAACCAGAGAAACACACGUUGUGGUAUAUUACCUGUUA | 0.267
GUCCUCUUUCACGUGCACGUGAAAGAGAGAAGUGAACCAGAGAAACACACGUUGUGGUAUAUUAUCUGGUA | 0.31
GUCCUCUUUCACGUGCACGUGAAAGAGAGAAGUGAACCAGAGAAACACACGUUGUGGUAUAUUAACUGGUA | 0.86
GUCCUCUUUCACGUGUGCGUGAAAGAGAGAAGUGAACCAGAGAAACACACGUUGUGGGAUAUUACCUGGUA | 0.765
GUCCUCUUUCACGUGUGCGUGAAAGAGAGAAGUGAACCAGAGAAACACACGUUGUGUUAUAUUACCUGGUA | 0.266
GUCCUCUUUCACGUGCACGUGAAAGAGAGAAGUGAUCCAGAGAAACACACGUUGUGGUAUAUUACCUGGUA | 0.544
GUCCUCUUUCACGUGCACGUGAAAGAGAGAAGUGAGCCAGAGAAACACACGUUGUGGUAUAUUACCUGGUA | 1.17
GUCCUCUUUCACGUGCACGUGAAAGAGAGAAGUGACCCAGAGAAACACACGUUGUGGUAUAUUACCUGGUA | 0.607
GUCCUCUUUCACGUGCACGUGAGAGAGAGAAGUGAACCAGAGAAACACACGUUGUGGUAUAUUACCUGGUA | 0.824
